# Data from patent US11111484B2, “Streptococcus bacteriophage lysins for detection and treatment of gram positive bacteria” (priority 2011, dated 2021).
# “And” between values parts separate entries of the source, which are not always exact repeats. Identical values can stand only once. “Also recorded” adds a separate entry of the source.
# B1: PlySs2: Streptococcus suis prophage lysin, SEQ ID NO:3; N-terminal CHAP domain and C-terminal SH3-type 5 domain (protein, listed as Streptococcus suis)
# chain: MTTVNEALNNVRAQVGSGVSVGNGECYALASWYERMISPDATVGLGAGVGWVSGAIGDTISAKNIGSSYNWQANGWTVSTSGPFKAGQIVTLGATPGNPYGHVVIVEAVDGDRLTILEQNYGGKRYPVRNYYSAASYRQQVVHYITPPGTVAQSAPNLAGSRSYRETGTMTVTVDALNVRRAPNTSGEIVAVYKRGESFDYDTVIIDVNGYVWVSYIGGSGKRNYVATGATKDGKRFGNAWGTFK
# B2: ΔPlySs1: truncated PlySs1 lysin, SEQ ID NO:2, N-terminal 254 amino acids: only N-terminal enzymatic and central binding domains (protein, listed as Streptococcus suis)
# chain: MTINLETSIRWMSDRVGKVSYSMDYRNGPNSYDCSSAVYYALMAGGAISAGWAVNTEYMHDWLIRNGYVLVAENKPFNAQRHDVCILGKRGYSSGAGGHVVIFVDNVNVIHCNYARNGISIDNYNQVHRGMYYYLYRPANQPSISNKSLDQLVKETLAGVHGNGDTRKASLGSQYEAVMAVINGKASASEKSDEELAREVLAGKHGAGEDRKRSLGPRYEPVQAKVNELLKAKEKPSETAKNEPQTVQFKEDGDL
# Assays:
# [1] = system: S. pyogenes strain MGAS5005; experiment: murine septicemia model, S. pyogenes infection alone; format: in vivo, FVB/NJ mice; details: PlySs2 2 mg
# Protocol: (§1) The Rockefeller University's Institutional Animal Care and Use Committee approved all in vivo protocols. A systemic infection model described in Daniel, A. et al., was used to test for the in vivo efficacy of PlySs2 against multiple gram-positive bacteria. Briefly, 4-5 week old female FVB/NJ mice (weight range 15 to 20 g) were obtained from The Jackson Laboratory (Bar Harbor, Me.). After a period of acclimation, mice were injected intraperitoneally (IP) with 0.5 ml of mid log-phase (OD600 0.5) bacteria diluted with 5% hog gastric mucin (Sigma) in saline. Bacterial suspensions contained ˜5×10^5 CFU/ml of MW2, a PVL toxin-encoding MRSA strain, ˜1×10^7 of MGAS5005, an M1 serotype of Streptococcus pyogenes that is virulent in humans and mice (Musser), or a combination of both bacteria simultaneously at the above concentrations for the mix infection experiments. Actual bacterial inoculation titers were calculated by serial dilution and plating to Columbia blood agar plates for each experiment. Mice became bacteremic within one to three hours and contained MRSA and/or S. pyogenes in their organs (including spleen, liver, kidney, and heart/blood) ([50], and unpublished observations). […] The survival rate for each experimental group was monitored every 12 hours for the first 24 hours then every 24 hours up to 10 days post-infection. The data were statistically analyzed by Kaplan Meier Survival curves and a Logrank test performed for 95% confidence intervals using the Prism computer program (GraphPad Software; La Jolla, Calif.).
# To determine if the broad lytic activity of PlySs2 could provide in vivo protection from infection with gram-positive pathogens, either alone or as a mixed infection, FVB/NJ mice were intraperitoneally injected with ˜5×10^5 CFU of MRSA strain MW2, ˜1×10^7 of S. pyogenes strain MGAS5005 and/or both bacteria simultaneously at the concentrations above. […] Mice were then monitored for survival over ten days. […]
# [2] = system: MRSA strain MW2 and S. pyogenes strain MGAS5005; experiment: murine septicemia model, mixed MRSA and S. pyogenes infection; format: in vivo, FVB/NJ mice; details: PlySs2 2 mg, ClyS 1 mg + PlyC 1 mg
# Protocol: as §1, with “experiment.” for “experiment. Mice became bacteremic within one to three hours and contained MRSA and/or S. pyogenes in their organs (including spleen, liver, kidney, and heart/blood) ([50], and unpublished observations).”, “Calif.). […]” for “Calif.).”
# E. coli = experiment: MIC studies; format: cell-based, Escherichia coli; details: E. coli negative control
# Protocol: The Wiegand, et al. protocol to determine minimum inhibitory concentrations was followed with adjustments detailed below. A final suspension of ≈5×10^5 cells/ml in MHB (or BHI for S. pyogenes) resulted after Sterile-filtered lysin or vehicle was added at the appropriate concentration. These tests were distributed within a 96-well microtiter plate. The MIC's were determined, in this experiment, by detection of pellet formation in the bottom of rounded polysterene plate wells. They were also corroborated colorimetrically with alamarBlue®.
# S. pyogenes strain 5005 = experiment: resistance assay, exposure to incrementally increasing concentrations; format: cell-based, Streptococcus pyogenes; details: S. pyogenes 5005; concentration doubled daily from 1/32 to 4× MIC over 8 days
# MSSA strain 8325 = experiment: as above; format: cell-based, Staphylococcus aureus; details: MSSA 8325; concentration doubled daily from 1/32 to 4× MIC over 8 days
# MRSA = MRSA mouse sepsis model; format: in vivo, FVB/NJ mice
# Protocol: PlySs2 lysin activity against S. aureus has been further evaluated in an MRSA mouse sepsis model. In the MRSA mouse sepsis model, susceptible mice (FVB/NJ mice, weight range 15-20 g) were injected with 500 μL of 5×10^5 (approx LD100) MRSA cells/mL in 5% hog gastric mucin in PBS intraperitoneally (IP). After 3 hours, all of the mice are bacteremic with MRSA in their organs (including spleen, liver, kidney, and heart/blood). To determine PlySs2 activity in this model, 500 μL PlySs2 at 2 mg/mL was injected IP 3 hours after injecting MRSA. […] Control mice were injected with 500 μL PBS. Survival was evaluated over ten days. The control mice die within 18-20 hours.
# S. simulans TNK3 = experiment: ΔPlySs1 OD600 lysis, 1 hr, optimal buffering conditions; format: cell-based, Staphylococcus simulans
# S. pyogenes D471 = experiment: as above; format: cell-based, Streptococcus pyogenes
# E. faecalis V583 = experiment: as above; format: cell-based, Enterococcus faecalis
# S. dysgalactiae 21597 = experiment: as above; format: cell-based, Streptococcus dysgalactiae
# S. mutans U159 = experiment: as above; format: cell-based, Streptococcus mutans
# S. pneumoniae R36 = experiment: as above; format: cell-based, Streptococcus pneumoniae
molecule,measurement,setting,value
B1,mice died at day three (dead/total),[1],1/16
same,survival over 10 days,[1]; PlyC 1 mg,94%
same,survival over 10 days (mice surviving/total),[1]; PlyC 1 mg,15/16
same,survival of mixed infection,[2],92%
same,survival of mixed infection (mice surviving/total),[2],22 of 24 and 22/24
same,minimum inhibitory concentration (MIC),E. coli,too high to calculate; also recorded: immeasurable
same,development of resistance,S. pyogenes strain 5005,"neither MRSA nor S. pyogenes established resistance; also recorded: None of MRSA strain MW2, MSSA strain 8325, nor S. pyogenes strain 5005 developed resistance"
same,development of resistance,MSSA strain 8325,"Neither S. aureus strain developed resistance; also recorded: None of MRSA strain MW2, MSSA strain 8325, nor S. pyogenes strain 5005 developed resistance"
same,survival evaluated over ten days,MRSA; 500 μL PlySs2 at 2 mg/mL IP 3 hours after MRSA,remarkable survival
same,mice cleared of bacteremia (survival over 10 days),"MRSA; MRSA bacteremia, FIG. 24",95%
B2,lysis value after 1 hr (treated/untreated OD600 ratio),S. simulans TNK3; 6.5 μg/ml,0.96
same,lysis value after 1 hr (treated/untreated OD600 ratio),S. simulans TNK3; 13 μg/ml,1.00
same,lysis value after 1 hr (treated/untreated OD600 ratio),S. simulans TNK3; 30 μg/ml,1.00
same,lysis value after 1 hr (treated/untreated OD600 ratio),S. simulans TNK3; 65 μg/ml,1.00
same,lysis value after 1 hr (treated/untreated OD600 ratio),S. simulans TNK3; 130 μg/ml,0.96
same,lysis value after 1 hr (treated/untreated OD600 ratio),S. pyogenes D471; 6.5 μg/ml,0.39
same,lysis value after 1 hr (treated/untreated OD600 ratio),S. pyogenes D471; 13 μg/ml,0.27
same,lysis value after 1 hr (treated/untreated OD600 ratio),S. pyogenes D471; 30 μg/ml,0.17
same,lysis value after 1 hr (treated/untreated OD600 ratio),S. pyogenes D471; 65 μg/ml,0.13
same,lysis value after 1 hr (treated/untreated OD600 ratio),S. pyogenes D471; 130 μg/ml,0.09
same,lysis value after 1 hr (treated/untreated OD600 ratio),E. faecalis V583; 6.5 μg/ml,0.98
same,lysis value after 1 hr (treated/untreated OD600 ratio),E. faecalis V583; 13 μg/ml,0.93
same,lysis value after 1 hr (treated/untreated OD600 ratio),E. faecalis V583; 30 μg/ml,0.84
same,lysis value after 1 hr (treated/untreated OD600 ratio),E. faecalis V583; 65 μg/ml,0.71
same,lysis value after 1 hr (treated/untreated OD600 ratio),E. faecalis V583; 130 μg/ml,0.52
same,lysis value after 1 hr (treated/untreated OD600 ratio),S. dysgalactiae 21597; 6.5 μg/ml,0.26
same,lysis value after 1 hr (treated/untreated OD600 ratio),S. dysgalactiae 21597; 13 μg/ml,0.18
same,lysis value after 1 hr (treated/untreated OD600 ratio),S. dysgalactiae 21597; 30 μg/ml,0.12
same,lysis value after 1 hr (treated/untreated OD600 ratio),S. dysgalactiae 21597; 65 μg/ml,0.10
same,lysis value after 1 hr (treated/untreated OD600 ratio),S. dysgalactiae 21597; 130 μg/ml,0.09
same,lysis value after 1 hr (treated/untreated OD600 ratio),S. mutans U159; 6.5 μg/ml,0.95
same,lysis value after 1 hr (treated/untreated OD600 ratio),S. mutans U159; 13 μg/ml,0.99
same,lysis value after 1 hr (treated/untreated OD600 ratio),S. mutans U159; 30 μg/ml,0.94
same,lysis value after 1 hr (treated/untreated OD600 ratio),S. mutans U159; 65 μg/ml,0.76
same,lysis value after 1 hr (treated/untreated OD600 ratio),S. mutans U159; 130 μg/ml,0.85
same,lysis value after 1 hr (treated/untreated OD600 ratio),S. pneumoniae R36; 6.5 μg/ml,0.25
same,lysis value after 1 hr (treated/untreated OD600 ratio),S. pneumoniae R36; 13 μg/ml,0.22
same,lysis value after 1 hr (treated/untreated OD600 ratio),S. pneumoniae R36; 30 μg/ml,0.14
same,lysis value after 1 hr (treated/untreated OD600 ratio),S. pneumoniae R36; 65 μg/ml,0.16
same,lysis value after 1 hr (treated/untreated OD600 ratio),S. pneumoniae R36; 130 μg/ml,0.12
